This test concerns the target T1, Tra1 (S. cerevisiae, UniProt P38811 1-3744).
T1 construct: Tra1, S. cerevisiae, largest subunit of SAGA (433 kDa), endogenous subunit of the purified native complex; Subunit of native SAGA purified through a 3xFLAG tag; The complex was mildly cross-linked with glutaraldehyde (GraFix) before cryo-EM; also called Tra1 module; head; source: endogenous, S. cerevisiae, purified as part of native SAGA (anti-FLAG M2 resin, FLAG peptide elution, GraFix)
Briefly: cryo-EM structure; native S. cerevisiae SAGA purified by anti-FLAG and GraFix (glycerol/glutaraldehyde gradient), 40 mM HEPES pH 7.4, 150 mM NaCl, 0.01% Tween-20, vitrified on lacey carbon grids with graphene oxide; consensus map 3.1 Å, Tra1 2.9 Å, core 3.2 Å; published models (PDB 6t9j, 6t9k) fitted into the map. The note with it: both partners purified.

Two molecules from PMC9296673, “Conformational landscape of the yeast SAGA complex as revealed by cryo-EM” (Scientific Reports, 2022) can be followed below.

T1 sequence (P38811 whole entry): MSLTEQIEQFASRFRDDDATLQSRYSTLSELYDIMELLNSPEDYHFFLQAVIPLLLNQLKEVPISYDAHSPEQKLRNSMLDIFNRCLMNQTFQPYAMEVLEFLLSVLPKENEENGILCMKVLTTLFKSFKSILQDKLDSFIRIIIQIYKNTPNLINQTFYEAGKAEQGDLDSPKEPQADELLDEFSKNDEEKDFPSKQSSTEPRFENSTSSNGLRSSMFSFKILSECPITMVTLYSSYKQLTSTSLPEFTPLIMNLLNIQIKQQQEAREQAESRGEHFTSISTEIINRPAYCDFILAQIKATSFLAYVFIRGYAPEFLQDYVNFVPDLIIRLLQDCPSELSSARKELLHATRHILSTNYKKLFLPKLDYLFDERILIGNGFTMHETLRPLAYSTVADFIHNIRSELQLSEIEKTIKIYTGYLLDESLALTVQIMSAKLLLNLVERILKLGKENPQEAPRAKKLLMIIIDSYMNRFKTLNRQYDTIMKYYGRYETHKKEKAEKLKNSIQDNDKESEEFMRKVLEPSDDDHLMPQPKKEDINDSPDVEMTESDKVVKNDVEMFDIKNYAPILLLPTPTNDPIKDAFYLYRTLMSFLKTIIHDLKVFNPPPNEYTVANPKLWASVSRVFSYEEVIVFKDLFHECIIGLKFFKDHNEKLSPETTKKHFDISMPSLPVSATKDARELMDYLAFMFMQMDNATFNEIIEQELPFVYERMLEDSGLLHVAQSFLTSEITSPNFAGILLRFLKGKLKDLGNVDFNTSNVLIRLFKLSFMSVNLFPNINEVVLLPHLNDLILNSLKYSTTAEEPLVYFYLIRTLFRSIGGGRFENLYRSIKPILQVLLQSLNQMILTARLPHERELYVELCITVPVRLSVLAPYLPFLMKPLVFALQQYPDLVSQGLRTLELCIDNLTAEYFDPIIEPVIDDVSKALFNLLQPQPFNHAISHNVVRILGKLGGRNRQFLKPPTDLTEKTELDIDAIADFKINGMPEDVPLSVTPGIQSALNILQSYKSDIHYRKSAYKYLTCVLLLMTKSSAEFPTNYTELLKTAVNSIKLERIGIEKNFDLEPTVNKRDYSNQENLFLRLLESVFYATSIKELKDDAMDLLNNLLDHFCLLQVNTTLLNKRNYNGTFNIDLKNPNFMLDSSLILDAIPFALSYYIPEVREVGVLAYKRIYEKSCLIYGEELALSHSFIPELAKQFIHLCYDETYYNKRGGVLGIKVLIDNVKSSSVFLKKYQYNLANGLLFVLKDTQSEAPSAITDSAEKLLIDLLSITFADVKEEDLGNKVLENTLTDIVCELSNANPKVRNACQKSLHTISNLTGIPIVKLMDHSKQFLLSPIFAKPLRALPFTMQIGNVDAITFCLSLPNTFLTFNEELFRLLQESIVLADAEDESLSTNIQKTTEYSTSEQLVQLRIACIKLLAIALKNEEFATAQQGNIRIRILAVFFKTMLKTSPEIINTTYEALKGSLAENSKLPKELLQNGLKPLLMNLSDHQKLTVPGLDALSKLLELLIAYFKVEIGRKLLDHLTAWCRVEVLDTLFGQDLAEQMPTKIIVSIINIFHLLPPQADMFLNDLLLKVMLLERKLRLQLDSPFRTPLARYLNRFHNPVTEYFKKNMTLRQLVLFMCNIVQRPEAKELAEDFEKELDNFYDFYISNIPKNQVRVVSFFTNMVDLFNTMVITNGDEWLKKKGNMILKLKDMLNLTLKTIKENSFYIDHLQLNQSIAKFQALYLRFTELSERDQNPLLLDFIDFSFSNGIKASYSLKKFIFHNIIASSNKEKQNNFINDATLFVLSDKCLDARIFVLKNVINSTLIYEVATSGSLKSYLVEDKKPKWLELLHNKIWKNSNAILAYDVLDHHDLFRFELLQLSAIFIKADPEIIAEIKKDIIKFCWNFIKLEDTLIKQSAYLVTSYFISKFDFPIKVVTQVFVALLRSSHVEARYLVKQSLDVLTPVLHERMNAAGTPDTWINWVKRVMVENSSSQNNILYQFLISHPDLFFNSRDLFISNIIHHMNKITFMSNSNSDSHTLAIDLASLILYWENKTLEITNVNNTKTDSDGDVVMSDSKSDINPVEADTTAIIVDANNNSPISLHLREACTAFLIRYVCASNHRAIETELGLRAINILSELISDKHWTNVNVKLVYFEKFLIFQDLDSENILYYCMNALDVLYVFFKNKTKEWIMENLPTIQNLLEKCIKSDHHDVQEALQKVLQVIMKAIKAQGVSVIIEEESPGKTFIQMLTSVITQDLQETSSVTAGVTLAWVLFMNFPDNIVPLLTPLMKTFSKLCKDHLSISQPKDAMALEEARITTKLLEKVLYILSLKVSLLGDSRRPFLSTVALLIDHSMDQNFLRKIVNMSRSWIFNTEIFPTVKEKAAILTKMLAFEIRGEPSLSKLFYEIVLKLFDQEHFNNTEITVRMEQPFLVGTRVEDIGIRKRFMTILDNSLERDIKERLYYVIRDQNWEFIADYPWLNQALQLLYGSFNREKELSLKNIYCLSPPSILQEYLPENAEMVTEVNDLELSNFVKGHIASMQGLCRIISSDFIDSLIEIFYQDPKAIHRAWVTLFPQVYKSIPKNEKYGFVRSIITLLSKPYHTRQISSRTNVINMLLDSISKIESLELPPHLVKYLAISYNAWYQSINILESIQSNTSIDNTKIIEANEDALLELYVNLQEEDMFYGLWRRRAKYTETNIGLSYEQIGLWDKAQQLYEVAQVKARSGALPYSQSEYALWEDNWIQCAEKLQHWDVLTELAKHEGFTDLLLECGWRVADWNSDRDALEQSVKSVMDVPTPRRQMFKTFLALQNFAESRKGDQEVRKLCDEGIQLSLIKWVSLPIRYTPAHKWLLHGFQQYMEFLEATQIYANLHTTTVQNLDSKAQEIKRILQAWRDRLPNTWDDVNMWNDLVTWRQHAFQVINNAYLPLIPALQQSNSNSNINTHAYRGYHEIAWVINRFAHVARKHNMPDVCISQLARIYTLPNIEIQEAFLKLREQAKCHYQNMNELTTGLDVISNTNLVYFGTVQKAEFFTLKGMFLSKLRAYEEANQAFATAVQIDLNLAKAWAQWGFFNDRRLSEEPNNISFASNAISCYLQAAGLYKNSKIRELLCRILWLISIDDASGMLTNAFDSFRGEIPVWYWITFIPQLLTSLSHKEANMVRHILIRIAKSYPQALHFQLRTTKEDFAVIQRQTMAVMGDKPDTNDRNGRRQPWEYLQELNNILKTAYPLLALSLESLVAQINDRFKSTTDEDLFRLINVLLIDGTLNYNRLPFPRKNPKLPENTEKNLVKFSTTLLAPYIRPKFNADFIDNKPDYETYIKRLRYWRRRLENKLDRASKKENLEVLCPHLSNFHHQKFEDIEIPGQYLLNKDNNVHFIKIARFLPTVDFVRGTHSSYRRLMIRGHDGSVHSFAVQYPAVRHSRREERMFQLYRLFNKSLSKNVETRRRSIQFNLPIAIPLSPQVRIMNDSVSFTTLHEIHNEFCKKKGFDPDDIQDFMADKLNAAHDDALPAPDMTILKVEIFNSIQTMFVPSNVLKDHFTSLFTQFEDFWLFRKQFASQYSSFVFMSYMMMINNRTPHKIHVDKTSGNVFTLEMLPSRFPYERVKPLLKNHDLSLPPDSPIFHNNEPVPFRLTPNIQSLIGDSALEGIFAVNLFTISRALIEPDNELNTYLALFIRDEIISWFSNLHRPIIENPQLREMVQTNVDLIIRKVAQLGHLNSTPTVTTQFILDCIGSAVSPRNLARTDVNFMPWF

B1: Spt20 (natural protein, S. cerevisiae, UniProt P50875 1-604, looked up)
chain: MSANSPTGNDPHVFGIPVNATPSNMGSPGSPVNVPPPMNPAVANVNHPVMRTNSNSNANEGTRTLTREQIQQLQQRQRLLLQQRLLEQQRKQQALQNYEAQFYQMLMTLNKRPKRLYNFVEDADSILKKYEQYLHSFEFHIYENNYKICAPANSRLQQQQKQPELTSDGLILTKNNETLKEFLEYVARGRIPDAIMEVLRDCNIQFYEGNLILQVYDHTNTVDVTPKENKPNLNSSSSPSNNNSTQDNSKIQQPSEPNSGVANTGANTANKKASFKRPRVYRTLLKPNDLTTYYDMMSYADNARFSDSIYQQFESEILTLTKRNLSLSVPLNPYEHRDMLEETAFSEPHWDSEKKSFIHEHRAESTREGTKGVVGHIEERDEFPQHSSNYEQLMLIMNERTTTITNSTFAVSLTKNAMEIASSSSNGVRGASSSTSNSASNTRNNSLANGNQVALAAAAAAAAVGSTMGNDNNQFSRLKFIEQWRINKEKRKQQALSANINPTPFNARISMTAPLTPQQQLLQRQQQALEQQQNGGAMKNANKRSGNNATSNNNNNNNNLDKPKVKRPRKNAKKSESGTPAPKKKRMTKKKQSASSTPSSTTMS
notes: Spt20, S. cerevisiae, subunit of the SAGA core module, endogenous subunit of the purified native complex; Subunit of native SAGA purified through a 3xFLAG tag; The complex was mildly cross-linked with glutaraldehyde (GraFix) before cryo-EM; also called Spt20 core subunit; source: endogenous, S. cerevisiae, purified as part of native SAGA (anti-FLAG M2 resin, FLAG peptide elution, GraFix)
B1: the binding result is listed as “binds”.

B2: Taf12 (natural protein, S. cerevisiae, UniProt Q03761 1-539, looked up)
chain: MSSNPENSGVNANNNTGTGNADAITGAQQNMVLQPRQLQEMAAKFRTLLTEARNVGETTPRGKELMFQAAKIKQVYDALTLNRRRQQAAQAYNNTSNSNSSNPASIPTENVPNSSQQQQQQQQQTRNNSNKFSNMIKQVLTPEENQEYEKLWQNFQVRHTSIKEKETYLKQNIDRLEQEINKQTDEGPKQQLQEKKIELLNDWKVLKIEYTKLFNNYQNSKKTFYVECARHNPALHKFLQESTQQQRVQQQRVQQQQQQQQQQQQQQQQQQQQQQQRQGQNQRKISSSNSTEIPSVTGPDALKSQQQQQNTITATNNPRGNVNTSQTEQSKAKVTNVNATASMLNNISSSKSAIFKQTEPAIPISENISTKTPAPVAYRSNRPTITGGSAMNASALNTPATTKLPPYEMDTQRVMSKRKLRELVKTVGIDEGDGETVIDGDVEELLLDLADDFVTNVTAFSCRLAKHRKSDNLEARDIQLHLERNWNIRIPGYSADEIRSTRKWNPSQNYNQKLQSITSDKVAAAKNNGNNVASLNTKK
notes: Taf12, S. cerevisiae, subunit of the SAGA core module, endogenous subunit of the purified native complex; Subunit of native SAGA purified through a 3xFLAG tag; The complex was mildly cross-linked with glutaraldehyde (GraFix) before cryo-EM; also called Taf12 core subunit; source: endogenous, S. cerevisiae, purified as part of native SAGA (anti-FLAG M2 resin, FLAG peptide elution, GraFix)
Turning to B2, the binding result is on record as “binds”.
